Experimental data: the supplement of paper PMC9170038

Test system: MS2 coat protein
Test: apparent KD of MS2 coat protein; designed switch direction (-1 OFF switch, 1 ON switch): 1; higher = weaker reporter binding
How it was run: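 Designed RNA switches with common flanks were transcribed on Illumina chips by stalled E. coli RNA polymerase and titrated with SNAP-549-labelled MS2 coat protein, from 0.7 or 1.5 nM doubling to 3 µM, in Tris-HCl pH 7.5 buffer with KCl, MgCl2, BSA, DTT, tRNA and Tween-20. Steps lasted 0.8–1.5 h (lowest) to 10–20 min (highest). Titrations ran without input, with 200 uM small-molecule ligand, or with an oligonucleotide input. Normalised cluster fluorescence was curve-fitted, and apparent KD is the per-design median over clusters.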

[1] = input ligand: microRNA oligo, concentration not stated
[2] = Eterna round: R95, input ligand: microRNA oligo, concentration not stated
[3] = Eterna round: R95, input ligand: FMN 200 uM
[4] = Eterna round: R95, input ligand: none

Sequence | apparent KD of MS2 coat protein (input ligand: FMN 200 uM) [nM] | apparent KD of MS2 coat protein [1] [nM] | apparent KD of MS2 coat protein (input ligand: none) [nM] | apparent KD of MS2 coat protein [2] [nM] | apparent KD of MS2 coat protein [3] [nM] | apparent KD of MS2 coat protein [4] [nM]
UGCUUCGUGUAAGGAUAUGCAGCCGUUUCGGCUGCAGAAGGUACUAUAAUACAUGAGGAUCACCCAUGUCUCUCGCAUUGCGGG [salish99_SSng1_r04_303] (Eterna round: R96, puzzle: Same State NG 1) | 37.5 | 40.3 | 52.2 |  |  | 
AUUAUACAUGAGGAUCACCCAUGUAAUUAAUUAAUUAAGAUCUAGGAUAUCAGCUCGUUUAGAGCUGAGAAGGAGAUCACAUGU [SSNG3/20-C3] (Eterna round: R96, puzzle: Same State NG 3) |  | 23.3 |  |  |  | 
UGGCUGAGUCGAGGAUAUGAUCUUCAUAUAUAUACAUGAGGAUCACCCAUGUAUAAUUACAUGGAUCAGAAGGCGACUCAGCCU [SSNG2/13-A2] (Eterna round: R96, puzzle: Same State NG 2) |  | 23 |  |  |  | 
UUGCGCUGUCGAGAGGAUAUGCGGUGUUGGACAUGAGGAUCACCCAUGUUAGCGAUAGCUUUACGGUAGAAGGCUCUUCAGCUGC [salish99_ss2_r3_097] (puzzle: Same State 2) |  |  |  | 99 |  | 
CUCAAAACAAGCUGCAGUGUUCGUCUUUAACAUGAGGAUCACCCAUGUAGUAGCCCGGUGGAAGCGCUCGGGCCACC [Antetera] (puzzle: Sensor for hsa-mir-208a) |  |  |  | 27.8 | 44.3 | 43.9
GCUAGAAAUAAAGCCAACAUGAGGAUCACCCAUGUAUGUUGGUAGGAUAUCGUAUGCAAAGCAUACGAGAAGGGCCAAACUAGC [Mat - Same State NG 3 - JL Mod - D21] (Eterna round: R96, puzzle: Same State NG 3) | 72.3 | 65.4 | 122 |  |  | 
GUGGUCAGACAUGAGGAUCACCCAUGUGGAAUAAAUAACACACAGGAUAUCUAAUAUAAAAUAUAAGAGAAGGGUGGAUUGGUG (Eterna round: R96, puzzle: Same State NG 3) |  | 202 |  |  |  | 
AGAAUGCACAUGAGGAUCACCCAUGUACCCGGCUGGCAUUUGCAGGAUAUGCCGCGGCGAGCCCAGCAGAAGGGCAAGUGCUAA [Eternabot solution 4] (Eterna round: R96, puzzle: Same State NG 3) | 25.8 | 19 | 26.9 |  |  | 
AGGCUCGUGCUAGGAUAUCUAGGAUAUGGACGAGGAUUACCCGAGGAGCAUUAGCCCACCAGAGGAGAGAAGGAGCUACAUGCG [pwkr ssNG2 2F5 2FMN.12] (Eterna round: R96, puzzle: Same State NG 2) | 1320 | 509 | 513 |  |  | 
GGUGGGUUGCUACCGGCACAUGAGGAUCACCCAUGUUUUGGGAAGGAUAUGGUACCUAUUUGGUACCAGAAGGUCCCGUUGGUG [salish99_SSNG3_r04_708] (Eterna round: R96, puzzle: Same State NG 3) |  | 176 |  |  |  | 
GACAAUCUAUCUGAGGAUAUCAUGAGAAGAACAUGAGGAUCACCCAUGUGCAGGAAAACUGCAUAUGAGAAGGCAGAUAGAUUGG [Mat - Same State 2 - Mod - D17] (puzzle: Same State 2) |  |  |  | 607 | 47.8 | 3570
GCUACGGACGUAGGAUAUGUAGGAUAUGGCGAGAGCUAAGCUUGGAAGUCACUUCAGCCAGAAGGACAGAAGGACGCCGUGAGG [pwkr ssNG2 2FMN + F9.17] (Eterna round: R96, puzzle: Same State NG 2) | 355 | 1.34 | 29.5 |  |  | 
GAGGGAUGAGCGUAGGAUAUAGGAGAAGUGACAUGAGGAUCACCCAUGUGGUAUGAGGGAUGAUUCUAGAAGGACGCGGUAGAAG [JR_SS2_Sub063] (puzzle: Same State 2) |  |  |  | 399 | 149 | 373
GUUAAACAUGAGGAUCACCCAUGUCAUCUAAGUCGAGGAUAUGGGAAUUAAUUAAUUAAACCAGAAGGCGAAAAUU [Mat - Same State 1 - D95] (puzzle: Same State 1) |  |  |  | 756 | 59.7 | 1110
GGUCCCUACGCACAGGAUAUUCUUUUGGCAACAUGAGGAUCACCCAUGUGUGCCGAUCAUGGUUAGAAGAAGGGUGGUAAGGACG [Qucesosobe] (puzzle: Same State 2) |  |  |  | 10.8 | 9.76 | 12.2
UUAAUGAUGUAAGGAUAUACAUGAGGAUUUCUCGUAGAAGGUACAAGACAUGAGGAUCACCCAUGUGUCGCUCCGUAGAGCGUA [JL SSNG1 1.09] (Eterna round: R96, puzzle: Same State NG 1) |  | 132 |  |  |  | 

Sequence | apparent KD of MS2 coat protein (input ligand: FMN 200 uM) [nM] | apparent KD of MS2 coat protein [1] [nM] | apparent KD of MS2 coat protein (input ligand: none) [nM] | apparent KD of MS2 coat protein [2] [nM] | apparent KD of MS2 coat protein [3] [nM] | apparent KD of MS2 coat protein [4] [nM]
CUCCCUUGGGUAGGAUAUCUAGGAUAUGGGAAAGACUAAGUCUGUAGGUCACCUAACCCAGAUGGAGAGAAGGACCCAACACUC [pwkr ssNG2 2FMN + F9.39] (Eterna round: R96, puzzle: Same State NG 2) | 3.66 | 33.3 | 15.8 |  |  | 
GUUACAUGAGGAUCACCCAUGUAUGUGUGGGAGUAAGUGUCUUAGGAUAUCUAUCAUUAAAUUUAAGAGAAGGAAGAUUGUUGU [JMF's solution 91] (Eterna round: R96, puzzle: Same State NG 3) | 105 | 84.7 | 121 |  |  | 
GUGGUCAGACAUGAGGAUCACCCAUGUGGAAUAAAUAACACACAGGAUAUGUAAUAUAGGAUAUAACAGAAGGGUGGAUUGGUG (Eterna round: R96, puzzle: Same State NG 3) |  | 297 |  |  |  | 
GGAGCCGGCCUAGGAUAUUUCAUAUUUAAACAUGAGGAUCACCCAUGUAGGCCAGAAGGCCUUGGGAAGAAGGAGGUCGGCUCC [Loop Effect - U25,U26,U27] (Eterna round: R96, puzzle: Same State NG 2) |  | 57.4 |  |  |  | 
UAUUAGAUCCGAGGAUAUCCUUAUAAGAAACAUGAGGAUCACCCAUGUAAAGGGAAUUAUUUGUAGGAGAAGGCGGAUUUAGUU [JR_SSNG2_Sub055] (Eterna round: R96, puzzle: Same State NG 2) | 28.9 | 23 | 41.3 |  |  | 
GGUCGGACUCACAUGAGGAUCACCCAUGUUGCGGAAACGCGAUAGGAUAUCUGUCCGAAAAGGUCAGAGAAGGGUCAACCGACC [Fiskers NG3ss - 64] (Eterna round: R96, puzzle: Same State NG 3) | 447 | 486 | 567 |  |  | 
AUAAAACAUGAGGAUCACCCAUGUCAACAAAGUCGAGGAUAUGGGCAAAUUAAAUAAGAACCAGAAGGCGAAUAAU [salish99_ss1_r3_024] (puzzle: Same State 1) |  |  |  | 184 | 33.3 | 232
GGAUGAUAGACAGGAUAUUGAUUGUAAUUUUGUCAAGAAGGGUCUUUGAUUUAAACGACCAGUUACAUGAGGAUCACCCAUGUU [JR_SSNG1_Sub030] (Eterna round: R96, puzzle: Same State NG 1) | 20.1 | 27.6 | 30.3 |  |  | 
AUAAAACAUGAGGAUCACCCAUGUAAAAAUAUGGGAGGAUAUGCGAAAUAAAAUAAAUAAGCAGAAGGCCUAAAAA [SS! MT 19] (Eterna round: R96, puzzle: Same State 1) | 21.1 | 52.8 | 62.7 |  |  | 
AACAGUCGGCGAGGAUAUGGACGUACAGGUUUGCCUGUGCGGCUCACAUGAGGAUCACCCAUGUUCUAGAAGGCGCCACUGAGA [Lausrein] (Eterna round: R96, puzzle: Same State NG 2) | 19.9 | 48.8 | 81.2 |  |  | 
GGUCCAGCCUGAGCUGGACUACAGCAUGUACAUGAGGAUCACCCAUGUCAUGUACAUGUUUUUUGUUUGUCUUAAAA [Sensorship 9 - Jieux - Sensor for hsa-mir-208a] (Eterna round: R96, puzzle: Sensor for hsa-mir-208a) | 200 | 57.5 | 503 |  |  | 
GAUAGACAUGAGGAUCACCCAUGUGACAAAACCACAGGAUAUCACACAGGAGUAACUGCGUGAGAAGGGUGAGACU [Edatinti] (puzzle: Same State 1) |  |  |  | 13.4 | 109 | 32.4
AUUAAACAUGAGGAUCACCCAUGUCAACAUAGUCGAGGAUAUGGGCAAAUAAAAUAAGAACCAGAAGGCGAAUAAU [salish99_ss1_r3_075] (puzzle: Same State 1) |  |  |  | 266 | 45.2 | 335
UGUUGUAUUACAGGAUAUCUAUGAUUGUUAUUUAGAGAAGGGUAUUCACAUGAGGAUCACCCAUGUAUAUACGAGGAAGUUGUG [JMF's solution 60] (Eterna round: R96, puzzle: Same State NG 1) | 52.3 | 36.7 | 50.6 |  |  | 
AAAUAAAACACAGGAUAUGCAACCAAAACGGCGGCAGAAGGGUGAGACAUGAGGAUCACCCAUGUACACGUCCCACGGACGUGC [Arorraed] (Eterna round: R96, puzzle: Same State NG 1) | 392 | 9.43 | 88.4 |  |  | 
GGUCCAGCCUGAGCUGGACAAAAGUAUGUACAUGAGGAUCACCCAUGUCAUGUACAAGCUUUUUGCUCGUCUUAAAA [JL mod - D87 - 9] (puzzle: Sensor for hsa-mir-208a) |  |  |  | 22.4 | 430 | 486
